Laboratory results reported in patent publication US12668803B2, “Glypican-3-specific modified aptamer and use thereof” (APTAMER SCIENCES INC., priority 2019, dated 2026).

Legend:
[1] = Serum stability analysis (urea PAGE); assay type: in vitro ADME, human
Procedure: To examine whether 12-12, combi 5 aptamer, combi 4 and combi 5 modified aptamers bound with three or five gemcitabines are stable in the human serum, serum stability was analyzed. In detail, 10 μL of […] was added to 100% human serum, followed by incubation at 37° C. for 0 hr, 1 hr, 3 hr, 6 hr, 12 hr, and 24 hr. After incubation, 5 μL of […] was added, and distilled water was added to a volume of 250 μL. 250 μL of phenol:chloroform:isoamyl alcohol (25:24:1) was added in the equal volume, followed by stirring. Each sample was centrifuged at 16000×g for 10 min. The supernatant was transferred to a new tube, and completely dried. The resultant was diluted with 5× sample buffer and distilled water, and boiled at 95° C. for 5 min, and cooled. The sample was separated by urea PAGE (Polyacrylamide gel Electrophoresis) at 220 V for 25 min, and then stained with SYBR gold and examined using a Gel Doc™ EZ system.

[2] = system: GPC3-expressing hepatoma cells; experiment: Cell-killing effect (CCK-8) of gemcitabine-bound combi aptamers; assay type: cell-based; conditions: FIG. 23 and FIG. 24
Procedure: In detail, Huh-7 cells (ATCC, Rockville, MD, USA) were seeded in a 96-well plate at a density of 1×10^4/mL, and cultured using a DMEM (Gibco, Grand Island, NY, USA) medium containing 10% FBS (Gibco, Grand Island, NY, USA) and 1% antibiotics (penicillin/streptomycin) under conditions of 5% CO2 and 37° C. Next day, the aptamer stock (100 μM) was mixed with 5×SB18 buffer to prepare the stock at a concentration of 80 μM, and heated at 95° C. for 5 min, and then cooled at room temperature for 15 min or more. The medium was removed from the cultured cells, and 100 μL of a serum-free medium was added thereto, and cultured under conditions of 37° C. and 5% CO2 for 1 hr. The serum-free medium was removed, and then the cells were washed with 100 μL of 1×PBS. 100 μL of KRPH buffer was added, and cultured under conditions of 37° C. and 5% CO2 for 1 hr. The aptamer was diluted with KRPH buffer to 2-fold of the desired concentration, and added to a 96-well plate at 1× concentration, and cultured under conditions of 37° C. and 5% CO2 for 4 hr. After treatment with the aptamer, the KRPH buffer was removed, and then 100 μL of culture medium was added and cultured under conditions of 37° C. and 5% CO2 for […]. 6 days later, 10 μL of a kit solution of CCK-8 (Cell Counting Kit-8) was added to each well, and then cultured under conditions of 37° C. and 5% CO2 for 3 hr. Cell death levels were examined at […] using a microplate reader.

[3] = system: HepG2; experiment: Cellular internalization of gemcitabine-bound chemically optimized aptamers; assay type: cell-based; conditions: analysis in HepG2 and A431 cells, FIGS. 20 to 22
Procedure: [The source words this procedure for another cell line and reports this cell line under the same test.] 5 aptamer libraries prepared by truncating the 12-10 aptamer at various lengths [12-12 (35-mer), 12-11 (29-mer), 12-13 (24-mer), 12-14 (23-mer), and 12-15 (18-mer)] were subjected to cellular internalization analysis. In detail, a 6-well plate was prepared, and a round cover glass was placed in the 6-well plate. Huh-7 cells were cultured in the 6-well plate according to the method of Example 1-3. 5 μM of the aptamer stock was mixed with 5×SB18 buffer to prepare the aptamer at a concentration of 4 μM, and heated at 95° C. for 5 min, and then cooled at room temperature for 15 min or more. The next day, the medium was removed from the cultured cells, and a serum-free medium was added thereto, and cultured under conditions of 37° C. and 5% CO2 for 1 hr. The serum-free medium was removed, and then the cells were washed with 2 mL of 1×PBS. KRPH buffer was added, and cultured under conditions of 37° C. and 5% CO2 for 1 hr. 4 μM aptamer was diluted to 25 nM, and then cultured under conditions of 37° C. and 5% CO2 for 1 hr or 4 hr. Washing was repeated three times with 2 mL of 1×PBS. Washing was performed in a shaker at room temperature for 10 min while blocking the light. Thereafter, the cells were fixed by treatment with 4% paraformaldehyde at 4° C. for 10 min. Washing was repeated three times with 2 mL of 1×PBS. […]

In the case of “Combi 5 G(3) (DNA GNGAANGCGNNGAANNANWYSSSNNCAGNCANCAC; gemcitabines, 2'-OMe, 2'-F, BzdU, 3' idT; Combi 5 G(3); (1)..(1) G is 2-O-Methoxy-DNA.; (2)..(2) n is BzdU.; (3)..(3) G is 2-O-Methoxy-DNA.; (4)..(4) A is 2-Fluorine-DNA.; (5)..(5) A is 2-Fluorine-DNA.; (6)..(6) n is BzdU.; (10)..(10) n is BzdU.; (11)..(11) n is BzdU.; (12)..(12) G is 2-Fluorine-DNA.; (13)..(13) A is 2-Fluorine-DNA.; (14)..(14) A is 2-O-Methoxy-DNA.; (15)..(15) n is BzdU.; (16)..(16) n is BzdU.; (17)..(17) A is 2-O-Methox)”, the “half-life in the human serum” value ([1]; 100% human serum, 37° C., FIG. 28) is reported as “about 64 hr”, the “improvement of serum half-life compared with 12-12 aptamer” value ([1]; human serum) is reported as ≥ 10 times and the “concentration from which a cell-killing effect is shown” value [2] is reported as 100 nM. For the same substance, the cellular internalization [3] was “excellent cellular internalization”.
